Values quoted from earlier work, collected in publication PMC7825312.

Biological target: Cys38 (UniProt position 39, SFLKECPSGRI)
Assay: UV-vis

Substance: Recoverin (Bos taurus)
- pKa: 7.6
